The record followed here is publication PMC9332573.

Experiment [1] addresses C157S mutant of hDHHC3-Δ35 (hDHHS3-Δ35), C-terminal Twin-Strep tagged (human) (UniProt Q9NYG2). Description: SDS-PAGE; purified hDHHS3-Δ35 on SDS-PAGE; dimeric band at ≈50 kDa (Figure S5A).
Experiment [2] has the same target. Nature of the experiment: cryo-EM 2D classification; hDHHS3-Δ35 in GDN micelles from SEC peak 1; 200 kV Talos Arctica; 2D class averages with RELION 3; no 3D reconstruction.

Substance “C157S mutant of hDHHC3-Δ35 (hDHHS3-Δ35), C-terminal Twin-Strep tagged (from UniProt Q9NYG2-2 36-299) (enzyme)” came in with an oligomeric state (number of subunits) in experiment [1] of 2. The same substance registered a stoichiometry N in experiment [2] of 2.

In general, stoichiometry N refers to the number of molecules, sites or subunits per partner or assembly.
